Tested on: murine SOD1 mRNA
Experiment: CNS knock-down of SOD1 mRNA after systemic (SC or IV) administration (RT-qPCR)
Type: in vivo, C57Bl/6 mice
Details: SC QDx4 at 15 mg/kg (siRNA molar equivalent), one week after last dose
Description: VHH-siSOD1m-5'VP conjugates or heterodimeric VHH-hFc-siSOD1m-5'VP conjugates were generated and compared for their potential to trigger BBB-crossing and functional delivery in CNS tissues following systemic administration. Wild-type C57Bl/6 mice (4-8 per group) were administered with either four daily SC doses (QDx4) of unconjugated siSOD1m-5'VP or the C5-siSOD1m-5'VP conjugate at 15 mg/kg (siRNA molar equivalent), or three IV doses of the C5-hFc-siSOD1m-5'VP conjugate every two days (Q2Dx3) at 1.5 mg/kg (siRNA molar equivalent), compared to PBS injected mice. […] RNA samples were analyzed and dosed using a Fragment Analyzer RNA kit in a Fragment Analyzer system (Agilent). Relative RNA expression levels were quantified by RT-qPCR using the TaqMan™ Fast Universal PCR Master Mix (2X) no AmpErase™ LTNG kit (Applied Biosystems) and commercially available TaqMan™ probes for the target murine SOD1 and reference RpL13 and PUM1 genes (Applied Biosystems). Expression data were analyzed using the […]Cq method normalized to the expression of the reference RpL13 gene, for brain regions, or RpL13 and PUM1 genes for total brain, spinal cord, liver, kidney (multiplex qPCR), based on raw quantification cycle (Cq) values (Bustin et al.). The results are expressed as means ± standard error of the mean (SEM) and are presented as mRNA levels relative to the control animals injected with PBS. […]

B1: C5-siSOD1m-5'VP: TfR-binding VHH-siRNA conjugate wherein VHH is C5 (conjugate)
VHH: EVQLVESGGGVVQPGGSLKLSCVASGTDFSINFIRWYRQAPGKQREFVAGFTATGNTNYADSMKGRFTISRDNTKNAVYLQIDSLKPEDTAVYYCYMLDKWGQGTQVTVSSAAAEQKLISEEDLNGAAHHHHHHGS
  SOD1 mRNA KD in total brain and spinal cord: 30-40%

Source: EP4480965A1, “TRANSFERRIN RECEPTOR-BINDING MOLECULES, CONJUGATES THEREOF AND THEIR USES TO PREVENT OR TREAT CNS DISEASES” (Vect-Horus, priority 2023, dated 2024)
